{"source": "the DeepSol protein solubility set", "data": [{"assay": "soluble on expression in E. coli; label from the status in PepcDB or PDB records", "values": [{"sequence": "MGSGGVVHCRCAKCFCYPTKRRIRRRPRNLTILSLPEDVLFHILKWLSVEDILAVRAVHSQLKDLVDNHASVWACASFQELWPSPGNLKLFERAAEKGNFEAAVKLGIAYLYNEGLSVSDEARAEVNGLKASRFFSLAERLNVGAAPFIWLFIRPPWSVSGSCCKAVVHESLRAECQLQRTHKASILHCLGRVLSLFEDEEKQQQAHDLFEEAAHQGCLTSSYLLWESDRRTDVSDPGRCLHSFRKLRDYAAKGCWEAQLSLAKACANANQLGLEVRASSEIVCQLFQASQAVSKQQVFSVQKGLNDTMRYILIDWLVEVATMKDFTSLCLHLTVECVDRYLRRRLVPRYRLQLLGIACMVICTRFISKEILTIREAVWLTDNTYKYEDLVRMMGEIVSALEGKIRVPTVVDYKEVLLTLVPVELRTQHLCSFLCELSLLHTSLSAYAPARLAAAALLLARLTHGQTQPWTTQLWDLTGFSYEDLIPCVLSLHKKCFHDDAPKDYRQVSLTAVKQRFEDKRYGEISQEEVLSYSQLCAALGVTQDSPDPPTFLSTGEIHAFLSSPSGRRTKRKRENSLQEDRGSFVTTPTAELSSQEETLLGSFLDWSLDCCSGYEGDQESEGEKEGDVTAPSGILDVTVVYLNPEQHCCQESSDEEACPEDKGPQDPQALALDTQIPATPGPKPLVRTSREPGKDVTTSGYSSVSTASPTSSVDGGLGALPQPTSVLSLDSDSHTQPCHHQARKSCLQCRPPSPPESSVPQQQVKRINLCIHSEEEDMNLGLVRL", "soluble on expression in E. coli": "soluble"}, {"sequence": "MGSDKIHHHHHHMSMNSEPTPAEAFFLEGNRLLAASECRAAEACFREALALAPDFAEAHANLGMLLDQEGMAAEAERQYRLALALNPRLGHTHSNLGVLLANQKRFEEAESAYLSAIELEPDSPAAWSNLGVLQACRKQEREAEESYRTALRLDPDYHRASFNLSYLLLRQGRFDEGWSLLESRNRRWFARLEEHLPCPRWRGEDLQGRSLLIGLEAGHGDMIQFCRYAPLLKDRGAARITLVCHVALKDLLKTLDGVDTVISFDEILPDDAWDFWTPAMSIPCYCRTRLDSIPARIPYLHADPGLAEQWAAMLEREWAGPEMRIGLAWKGNPHFENDGDRSLPHLKTLEPLGAVAGVRFFSLQKGAGEEEAAQPPAGLPVVNLMRHIAGFADTAALVANLDLVITVDTAVAHLAGALGTECWVLLPEYRTDWRWLTGRTDSPWYPGVMRLFRQPRVGDWETVVAEVGEALRLFAARPRSPRGTR", "soluble on expression in E. coli": "not soluble"}, {"sequence": "MPIRDDISWPPSAVCSVSLILHLPGRFGHVSVAHLLLDHGADVNAQNRLGASVLTVASRGGHLGVVKLLLEAGAFVDHHHPSGEQLGLGGSRDEPLDITALMAAIQHGHEAVVRLLMEWGADPNHAARTVGWSPLMLAALTGRLGVAQQLVEKGANPDHLSVLEKTAFEVALDCKHRDLVDYLDPLTTVRPKTGQAACPPWLHRGPQIVFMWLKLRIALLEGHAELRVQPCRPLRLRKWCA", "soluble on expression in E. coli": "soluble"}, {"sequence": "MFKKLKASLGIGSAKVDTILDEMSVFQGATLKGHVHIKGGDVEQQIDAITIKLNTEMKVEVDDSVSYQTFTIDQLKAVDPFVIQPNEEKQVPFELKLHDETPITAVSALKNQCNVWVETTLDIDFAIDPRDRDYIEVKPLPVASRVIRAIEQAGFTMVKADVEKGFLRGGSFASRSGIYQELEFRNSGFVSSKEIELSFILEGQVMHCLAEIDRSLSFSGDQYRSFTLPINATDAQVAAAVAPTLSL", "soluble on expression in E. coli": "not soluble"}, {"sequence": "MSRGPEEVNRLTESTYRNVMEQFNPGLRNLINLGKNYEKAVNAMILAGKAYYDGVAKIGEIATGSPVSTELGHVLIEISSTHKKLNESLDENFKKFHKEIIHELEKKIELDVKYMNATLKRYQTEHKNKLESLEKSQAELKKIRRKSQGSRNALKYEHKEIEYVETVTSRQSEIQKFIADGCKEALLEEKRRFCFLVDKHCGFANHIHYYHLQSAELLNSKLPRWQETCVDAIKVPEKIMNMIEEIKTPASTPVSGTPQASPMIERSNVVRKDYDTLSKCSPKMPPAPSGRAYTSPLIDMFNNPATAAPNSQRVNNSTGTSEDPSLQRSVSVATGLNMMKKQKVKTIFPHTAGSNKTLLSFAQGDVITLLIPEEKDGWLYGEHDVSKARGWFPSSYTKLLEENETEAVTVPTPSPTPVRSISTVNLSENSSVVIPPPDYLECLSMGAAADRRADSARTTSTFKAPASKPETAAPNDANGTAKPPFLSGENPFATVKLRPTVTNDRSAPIIR", "soluble on expression in E. coli": "soluble"}, {"sequence": "GTQGKVIKCKAAIAWKTGSPLCIEEIEVSPPKACEVRIQVIATCVCHTDINATDPKKKALFPVVLGHECAGIVESVGPGVTNFKPGDKVIPFFAPQCKRCKLCLSPLTNLCGKLRNFKYPTIDQELMEDRTSRFTCKGRSIYHFMGVSSFSQYTVVSEANLARVDDEANLERVCLIGCGFSSGYGAAINTAKVTPGSTCAVFGLGCVGLSAIIGCKIAGASRIIAIDINGEKFPKAKALGATDCLNPRELDKPVQDVITELTAGGVDYSLDCAGTAQTLKAAVDCTVLGWGSCTVVGAKVDEMTIPTVDVILGRSINGTFFGGWKSVDSVPNLVSDYKNKKFDLDLLVTHALPFESINDAIDLMKEGKSIRTILTF", "soluble on expression in E. coli": "soluble"}, {"sequence": "MSLEAKKDMGRCLWELKDEIDHVDRYCHDLAAWDDLHAFIKAPNADFLKINLNADTILDNEVSFICIVDRSGQLLFAEDWDLHRKEKTVLTTLPDSLRSVASLPFSSESDKDDLSNMKRVGIYNSSRGPMMLSSRPIITSNQQGPVQGAVIIGRLLDQGSLDAMMVRVALNFRFIDMSGDELTAKEKKILGELAVEEISIVERENSDNLEVYSHLADIGGRYLIQAEIPKHILQREGHHHHHH", "soluble on expression in E. coli": "soluble"}, {"sequence": "MSLEYFDMRKMSVNLWRNAAGETREICTFPPAKRDFYWRASITSIAANGEFSLFPGMERIVTLLEGGEMFLESADRFNHTLKPLQPFSFAADLVVKAKLTAGQMSMDFNIMTRLDVCKAKVRIAERTFTTFGSRGGVVFVINGAWQLGDKLLTTDQGACWFDGRHTLRLLQPQGKLLFSEINWLAGHSEGHHHHHH", "soluble on expression in E. coli": "not soluble"}, {"sequence": "MKFGLFFLNFMNSKRSSDQVIEEMLDTAHYVDQLKFDTLAVYENHFSNNGVVGAPLTVAGFLLGMTKNAKVASLNHVITTHHPVRVAEEACLLDQMSEGRFAFGFSDCEKSADMRFFNRPTDSQFQLFSECHKIINDAFTTGYCHPNNDFYSFPKISVNPHAFTEGGPAQFVNATSKEVVEWAAKLGLPLVFRWDDSNAQRKEYAGLYHEVAQAHGVDVSQVRHKLTLLVNQNVDGEAARAEARVYLEEFVRESYSNTDFEQKMGELLSENAIGTYEESTQAARVAIECCGAADLLMSFESMEDKAQQRAVIDVVNANIVKYHSLEHHHHHH", "soluble on expression in E. coli": "soluble"}, {"sequence": "SAAEEEDEVEWVVESIAGFLRGPDWSIPILDFVEQKCEVFDDEEESKLTYTEIHQEYKELVEKLLEGYLKEIGINEDQFQEACTSPLAKTHTSQAILQPVLAAEDFTIFKAMMVQKNIEMQLQAIRIIQERNGVLPDCLTDGSDVVSDLEHEEMKILREVLRKSKEEYDQEEERKRKKQLSEAKTEEPTVHSSEAAIMNNSQGDGEHFAHPPSEVKMHFANQSIEPLGRKVERSETSSLPQKGLKFPGLEHASIEGPIANLSVLGTEELRQREHYLKQKRDKLMSMRKDMRTKQIQNMEQKGKPTGEVEEMTEKPEMTAEEKQTLLKRRLLAEKLKEEVINK", "soluble on expression in E. coli": "soluble"}, {"sequence": "NAVNWGMREYKIYPYELLLVTTRGRNRLPKDVDRTRLERHLSQEEFYQVFGMTISEFDRLALWKRNELKKQARLF", "soluble on expression in E. coli": "soluble"}, {"sequence": "MGSDKIHHHHHHMNTIHSCVLQIHLTIETKMADTKAIQQLDLNLLKIFEALYSEQNMTLASKSLFITPSAVSHAIKRLRLVLNDPLFVRQGLQMQPTAACQRMAPQLISALNRIRQVLQQCGEFDPLTTEQTFKIAIHEALESQIMPTLIKQVVKLIPHAKIASMSLSRENIARQLANGEVDLAIDVARAVNAPLAHKTLLSDPFCVLIDRRQHAMHLEPSTKLTPTDYANAEHVAVSSRPIGRVMEDILLQQQGVNRHIKYRCQSYQTAAKIVIGSPLMLTLPRSIAEQFIHPDLHVCTMPFELPDIDTHLYWHMNTETDPAFVWLRAQIEMAIIAE", "soluble on expression in E. coli": "not soluble"}, {"sequence": "MSDGQHRAADAVVVGAGLAGLACALDLCRAGWRVALLEASDGVGGRMRTDRRDGFLLDRGFQVFNTSYPQVKRRMELKSLRLRPFTAGVVAHTSNGPVRLADPTREPRAAGTLLPGRALPARDLAALAALTARDAVLPVAVTRRRRDRPTSAALSRVGLSDAAIAGILRPFLSGVFLEDRLETSARFFHLVWRSMVRGSLCLPAEGIGAVPAQLADGLPDGVLRLGTPVAEITDAGVLLGDGGEVPARVVVVATDPATAAGLLPDLTVPDTRTVTTYYHATDSPPTAEPILMVDSTGAILNTCVLSQVAPTYAPPGTGLVSTSVLGTDPPGRAQAVLRRLAELYGTDTSGWEQVAARTVDGALPAMLPPWPLSRTTRIGPGRYVCGDHRATGSVQGALASGTRAAREVRADREPQRLEHHHHHH", "soluble on expression in E. coli": "soluble"}, {"sequence": "MSPGERFLDWLKRLQGQKAWTAARAAFRRSLAFPPGAYPRAMPYVEPFLAKGDWRQEEREAHYLVAALYALKDGDHQVGRTLARALWEKAQGSASVEKRFLALLEADRDQIAFRLRQAVALVEGGIDFARLLDDLLRWFSPERHVQARWAREYYGAGASEEEKKKEVEA", "soluble on expression in E. coli": "soluble"}, {"sequence": "MSLPNSEDLRKPDAQREVGRHYPVTLDNQLVSTPEEEVIAPPSVMLRWETYQVANGESAALLFQRAGLSSRVLYELTSSNSDINNQLSKLMPKDELKFGFDKDNQLVQLKRTISPYETFVVTRSDSGFTSEFDKKEVTFQLNYAEAKITSNFWNAGVTAGLSANQIIELANMFGWDIDFALDIREGDQFKLLYQEKIVEGSVIGRGNIIAATFINQGSTFTAILDDNTGNYYDQNGRAMKKAFLRSPLDFRRVSSNFNPRRLHPVTGQIKAHRGTDYVAPVGTPIWAAGDGVVEKSSYNQFNGNYVYIRHSNTYITKYLHLQRRLVKTGERVKQGQTIGTLGGTGRVTGPHLHYEFLVNGIHKNPRTVELPQAQSLTGKAKETFIANAKQRMEKLERYSQLLYANQEGHHHHHH", "soluble on expression in E. coli": "soluble"}, {"sequence": "MAHHHHHHMRRVLLFRNRVDFVATLLQQGRLADMLMLQHFTSRTPQKPPAGNAAERNSGGTKVSVGETSRRALLTRCEAVKAKAMSTPCTDWLADAYGSGEWCALSESRDMVRVVASDNDPTRVKLRGTFPVLVQEGSSPASVRLAASKESGEALIVTVPLVQSGEKVRSSAIGGGIRAVTLKEADGSVVSDAATSVDAFAAEQNILSAAVCSGILGKLEEICALHATHTVRYDALLVRNPAVQKRLSQLACARFSLDALSSFVASAAVDEPMPLVESVALRMHAKHALAIGMGSARDIIHGTAMLKASPHRSKPERLIDYPYAQQLFASERYVLSSLGASSAAETMRHFTPLLMQPQTHMPAGVQGPLASLLLGGKGGNVNLAAPHANLRVSAAFLEKDIAAMLQRIQQQKKRADPLFVMAIAQYVAELFANTAVVYRTTASLTHEDDSAPRDWLLTQAFCADSSARRATILCEWDLSSAARKAIGKAADLNGCTTHPVELMNAEPARKPKVPSKSAAASVTQEAN", "soluble on expression in E. coli": "not soluble"}, {"sequence": "MAHHHHHHMEDDFHVDEEYIKQLSEKYKNAEHPLFMDELPANIEENEDLHALYNLMIDDEDELSLAKNFKQVGNDYYQDGTKYFEDAIISYTKGIDILTKYWEDKNLEKRKAERGKLRNDSNSSPTEGTKSNAQNVSSQRISNGVSIENGESTAGEEAGKPAVKGDSTSSRKGTEITVLNGLHNEGGHRDDLRDNEIRGVLADLHCNRAIVHYKKKRYVKCLQDCRKAYAFNQTKFKSVYYSILCSYHLELYKDAHMYVNRFEDMTKSIDLKNHINLNEYEKMKEIIFKKDEDILERKKVDQNEKRKAEENEKNVANLVQDILHKRNIQMVENVYQQGNNVIPVLYVDTSMYIHFTVFLLYFERAIMETIIDFAENQSIMDHYDIVKKNKNNHLLFCYIEFPYDVFFMIHSSSYICDVLNRAKLFSPILSIHIIENEEANRQFRSGKTIKSIPL", "soluble on expression in E. coli": "not soluble"}]}]}
